Measurements: patent US12630600B2 (MEDIMMUNE LIMITED, priority 2022, dated 2026)
Starred links: 1 amine or outer side, 2 acyl side, 3 side chain; linkers in the order of their positions; H or OH if unused. Non-standard residues stand in square brackets, D forms with d. Groups on a side chain read outwards from the residue. No end group written: not given here. *: point of attachment. C20 diacid = O=C(O)CCCCCCCCCCCCCCCCCCC(=O)*; C18 diacid = O=C(O)CCCCCCCCCCCCCCCCC(=O)*; γGlu = O=C(O)[C@H](CCC(=O)[*:2])N[*:1]; αMeF = C[C@](N)(Cc1ccccc1)C(=O)O; AEEA = NCCOCCOCC(=O)O; Aib = CC(C)(N)C(=O)O

Legend:
human GLP-1 receptor = human GLP-1 receptor (human, UniProt P43220); experiment: cell-based or functional assay
human glucagon receptor = human glucagon receptor (human, UniProt P47871); experiment: cell-based or functional assay

Binder	cAMP production EC50 (human GLP-1 receptor) [nM]	cAMP production EC50 (human glucagon receptor) [nM]
H[Aib]QGTFTSDVSK[αMeF]LDTK([AEEA-AEEA-γGlu-C20 diacid])RAQDFVRWLLE[Aib]K-OH [Peptide 503]	0.0812	0.0849
H[Aib]QGTFTSDVSK[αMeF]LDTK([AEEA-AEEA-γGlu-C20 diacid])RAQDFVQWLLR[Aib]A-OH (N-terminus assumed; SMILES CC(C)C[C@H](NC(=O)[C@H](Cc1c[nH]c2ccccc12)NC(=O)[C@H](CCC(N)=O)NC(=O)[C@@H](NC(=O)[C@H](Cc1ccccc1)NC(=O)[C@H](CC(=O)O)NC(=O)[C@H](CCC(N)=O)NC(=O)[C@H](C)NC(=O)[C@H](CCCNC(=N)N)NC(=O)[C@H](CCCCNC(=O)COCCOCCNC(=O)COCCOCCNC(=O)CC[C@H](NC(=O)CCCCCCCCCCCCCCCCCCC(=O)O)C(=O)O)NC(=O)[C@@H](NC(=O)[C@H](CC(=O)O)NC(=O)[C@H](CC(C)C)NC(=O)[C@](C)(Cc1ccccc1)NC(=O)[C@H](CCCCN)NC(=O)[C@H](CO)NC(=O)[C@@H](NC(=O)[C@H](CC(=O)O)NC(=O)[C@H](CO)NC(=O)[C@@H](NC(=O)[C@H](Cc1ccccc1)NC(=O)[C@@H](NC(=O)CNC(=O)[C@H](CCC(N)=O)NC(=O)C(C)(C)NC(=O)[C@@H](N)Cc1c[nH]cn1)[C@@H](C)O)[C@@H](C)O)C(C)C)[C@@H](C)O)C(C)C)C(=O)N[C@@H](CC(C)C)C(=O)N[C@@H](CCCNC(=N)N)C(=O)NC(C)(C)C(=O)N[C@@H](C)C(=O)O) [Peptide 500]	0.102	0.101
H[Aib]QGTFTSDVSK[αMeF]LDTK([AEEA-AEEA-γGlu-C20 diacid])RARDFVQWLLR[Aib]A-OH (N-terminus assumed; SMILES CC(C)C[C@H](NC(=O)[C@H](Cc1c[nH]c2ccccc12)NC(=O)[C@H](CCC(N)=O)NC(=O)[C@@H](NC(=O)[C@H](Cc1ccccc1)NC(=O)[C@H](CC(=O)O)NC(=O)[C@H](CCCNC(=N)N)NC(=O)[C@H](C)NC(=O)[C@H](CCCNC(=N)N)NC(=O)[C@H](CCCCNC(=O)COCCOCCNC(=O)COCCOCCNC(=O)CC[C@H](NC(=O)CCCCCCCCCCCCCCCCCCC(=O)O)C(=O)O)NC(=O)[C@@H](NC(=O)[C@H](CC(=O)O)NC(=O)[C@H](CC(C)C)NC(=O)[C@](C)(Cc1ccccc1)NC(=O)[C@H](CCCCN)NC(=O)[C@H](CO)NC(=O)[C@@H](NC(=O)[C@H](CC(=O)O)NC(=O)[C@H](CO)NC(=O)[C@@H](NC(=O)[C@H](Cc1ccccc1)NC(=O)[C@@H](NC(=O)CNC(=O)[C@H](CCC(N)=O)NC(=O)C(C)(C)NC(=O)[C@@H](N)Cc1c[nH]cn1)[C@@H](C)O)[C@@H](C)O)C(C)C)[C@@H](C)O)C(C)C)C(=O)N[C@@H](CC(C)C)C(=O)N[C@@H](CCCNC(=N)N)C(=O)NC(C)(C)C(=O)N[C@@H](C)C(=O)O) [Peptide 502]	0.0821	0.175
H[Aib]QGTFTSDVSK[αMeF]LDTK([AEEA-AEEA-γGlu-C18 diacid])RAQDFVQWLLR[Aib]A-OH (N-terminus assumed; SMILES CC(C)C[C@H](NC(=O)[C@H](Cc1c[nH]c2ccccc12)NC(=O)[C@H](CCC(N)=O)NC(=O)[C@@H](NC(=O)[C@H](Cc1ccccc1)NC(=O)[C@H](CC(=O)O)NC(=O)[C@H](CCC(N)=O)NC(=O)[C@H](C)NC(=O)[C@H](CCCNC(=N)N)NC(=O)[C@H](CCCCNC(=O)COCCOCCNC(=O)COCCOCCNC(=O)CC[C@H](NC(=O)CCCCCCCCCCCCCCCCC(=O)O)C(=O)O)NC(=O)[C@@H](NC(=O)[C@H](CC(=O)O)NC(=O)[C@H](CC(C)C)NC(=O)[C@](C)(Cc1ccccc1)NC(=O)[C@H](CCCCN)NC(=O)[C@H](CO)NC(=O)[C@@H](NC(=O)[C@H](CC(=O)O)NC(=O)[C@H](CO)NC(=O)[C@@H](NC(=O)[C@H](Cc1ccccc1)NC(=O)[C@@H](NC(=O)CNC(=O)[C@H](CCC(N)=O)NC(=O)C(C)(C)NC(=O)[C@@H](N)Cc1c[nH]cn1)[C@@H](C)O)[C@@H](C)O)C(C)C)[C@@H](C)O)C(C)C)C(=O)N[C@@H](CC(C)C)C(=O)N[C@@H](CCCNC(=N)N)C(=O)NC(C)(C)C(=O)N[C@@H](C)C(=O)O) [Peptide 499]	0.0406	0.0788
H[Aib]QGTFTSDVSK[αMeF]LDTK([AEEA-AEEA-γGlu-C18 diacid])RAQDFVRWLLR[Aib]A-OH (N-terminus assumed; SMILES CC(C)C[C@H](NC(=O)[C@H](Cc1c[nH]c2ccccc12)NC(=O)[C@H](CCCNC(=N)N)NC(=O)[C@@H](NC(=O)[C@H](Cc1ccccc1)NC(=O)[C@H](CC(=O)O)NC(=O)[C@H](CCC(N)=O)NC(=O)[C@H](C)NC(=O)[C@H](CCCNC(=N)N)NC(=O)[C@H](CCCCNC(=O)COCCOCCNC(=O)COCCOCCNC(=O)CC[C@H](NC(=O)CCCCCCCCCCCCCCCCC(=O)O)C(=O)O)NC(=O)[C@@H](NC(=O)[C@H](CC(=O)O)NC(=O)[C@H](CC(C)C)NC(=O)[C@](C)(Cc1ccccc1)NC(=O)[C@H](CCCCN)NC(=O)[C@H](CO)NC(=O)[C@@H](NC(=O)[C@H](CC(=O)O)NC(=O)[C@H](CO)NC(=O)[C@@H](NC(=O)[C@H](Cc1ccccc1)NC(=O)[C@@H](NC(=O)CNC(=O)[C@H](CCC(N)=O)NC(=O)C(C)(C)NC(=O)[C@@H](N)Cc1c[nH]cn1)[C@@H](C)O)[C@@H](C)O)C(C)C)[C@@H](C)O)C(C)C)C(=O)N[C@@H](CC(C)C)C(=O)N[C@@H](CCCNC(=N)N)C(=O)NC(C)(C)C(=O)N[C@@H](C)C(=O)O) [Peptide 497]	0.0374	0.118
H[Aib]QGTFTSDVSK[αMeF]LDTK([AEEA-AEEA-γGlu-C20 diacid])RAQDFVRWLLR[Aib]A-OH (N-terminus assumed; SMILES CC(C)C[C@H](NC(=O)[C@H](Cc1c[nH]c2ccccc12)NC(=O)[C@H](CCCNC(=N)N)NC(=O)[C@@H](NC(=O)[C@H](Cc1ccccc1)NC(=O)[C@H](CC(=O)O)NC(=O)[C@H](CCC(N)=O)NC(=O)[C@H](C)NC(=O)[C@H](CCCNC(=N)N)NC(=O)[C@H](CCCCNC(=O)COCCOCCNC(=O)COCCOCCNC(=O)CC[C@H](NC(=O)CCCCCCCCCCCCCCCCCCC(=O)O)C(=O)O)NC(=O)[C@@H](NC(=O)[C@H](CC(=O)O)NC(=O)[C@H](CC(C)C)NC(=O)[C@](C)(Cc1ccccc1)NC(=O)[C@H](CCCCN)NC(=O)[C@H](CO)NC(=O)[C@@H](NC(=O)[C@H](CC(=O)O)NC(=O)[C@H](CO)NC(=O)[C@@H](NC(=O)[C@H](Cc1ccccc1)NC(=O)[C@@H](NC(=O)CNC(=O)[C@H](CCC(N)=O)NC(=O)C(C)(C)NC(=O)[C@@H](N)Cc1c[nH]cn1)[C@@H](C)O)[C@@H](C)O)C(C)C)[C@@H](C)O)C(C)C)C(=O)N[C@@H](CC(C)C)C(=O)N[C@@H](CCCNC(=N)N)C(=O)NC(C)(C)C(=O)N[C@@H](C)C(=O)O) [Peptide 498]	0.156	0.17
H[Aib]QGTFTSDVSK[αMeF]LDTK([AEEA-AEEA-γGlu-C20 diacid])RAQDFVRWLLR[Aib]K-NH2 (N-terminus assumed; SMILES CC(C)C[C@H](NC(=O)[C@H](Cc1c[nH]c2ccccc12)NC(=O)[C@H](CCCNC(=N)N)NC(=O)[C@@H](NC(=O)[C@H](Cc1ccccc1)NC(=O)[C@H](CC(=O)O)NC(=O)[C@H](CCC(N)=O)NC(=O)[C@H](C)NC(=O)[C@H](CCCNC(=N)N)NC(=O)[C@H](CCCCNC(=O)COCCOCCNC(=O)COCCOCCNC(=O)CC[C@H](NC(=O)CCCCCCCCCCCCCCCCCCC(=O)O)C(=O)O)NC(=O)[C@@H](NC(=O)[C@H](CC(=O)O)NC(=O)[C@H](CC(C)C)NC(=O)[C@](C)(Cc1ccccc1)NC(=O)[C@H](CCCCN)NC(=O)[C@H](CO)NC(=O)[C@@H](NC(=O)[C@H](CC(=O)O)NC(=O)[C@H](CO)NC(=O)[C@@H](NC(=O)[C@H](Cc1ccccc1)NC(=O)[C@@H](NC(=O)CNC(=O)[C@H](CCC(N)=O)NC(=O)C(C)(C)NC(=O)[C@@H](N)Cc1c[nH]cn1)[C@@H](C)O)[C@@H](C)O)C(C)C)[C@@H](C)O)C(C)C)C(=O)N[C@@H](CC(C)C)C(=O)N[C@@H](CCCNC(=N)N)C(=O)NC(C)(C)C(=O)N[C@@H](CCCCN)C(N)=O) [Peptide 496]	0.0649	0.482
H[Aib]QGTFTSDVSK[αMeF]LDTK([AEEA-AEEA-γGlu-C18 diacid])RARDFVQWLLR[Aib]A-OH (N-terminus assumed; SMILES CC(C)C[C@H](NC(=O)[C@H](Cc1c[nH]c2ccccc12)NC(=O)[C@H](CCC(N)=O)NC(=O)[C@@H](NC(=O)[C@H](Cc1ccccc1)NC(=O)[C@H](CC(=O)O)NC(=O)[C@H](CCCNC(=N)N)NC(=O)[C@H](C)NC(=O)[C@H](CCCNC(=N)N)NC(=O)[C@H](CCCCNC(=O)COCCOCCNC(=O)COCCOCCNC(=O)CC[C@H](NC(=O)CCCCCCCCCCCCCCCCC(=O)O)C(=O)O)NC(=O)[C@@H](NC(=O)[C@H](CC(=O)O)NC(=O)[C@H](CC(C)C)NC(=O)[C@](C)(Cc1ccccc1)NC(=O)[C@H](CCCCN)NC(=O)[C@H](CO)NC(=O)[C@@H](NC(=O)[C@H](CC(=O)O)NC(=O)[C@H](CO)NC(=O)[C@@H](NC(=O)[C@H](Cc1ccccc1)NC(=O)[C@@H](NC(=O)CNC(=O)[C@H](CCC(N)=O)NC(=O)C(C)(C)NC(=O)[C@@H](N)Cc1c[nH]cn1)[C@@H](C)O)[C@@H](C)O)C(C)C)[C@@H](C)O)C(C)C)C(=O)N[C@@H](CC(C)C)C(=O)N[C@@H](CCCNC(=N)N)C(=O)NC(C)(C)C(=O)N[C@@H](C)C(=O)O) [Peptide 501]	0.0265	0.0756
